Measured values reported in US11306156.

Experiments:
[1] = biological target: tissue factor (TF) antigen (UniProt P13726); test: SPR (ProteOn), Fab captured on anti-penta His, TF as analyte, 1:1 fit
[2] = biological target: tissue factor (TF) antigen (UniProt P13726); test: SPR; against wild-type D3H44 Fab
[3] = biological target: tissue factor (TF) antigen (UniProt P13726); test: SPR, Fab captured on anti-penta His, TF injected, 1:1 fit
[4] = biological target: tissue factor (TF) antigen (UniProt P13726); test: SPR, Fab captured on anti-penta-His, TF as analyte, 1:1 fit
[5] = biological target: tissue factor (TF) antigen (UniProt P13726); test: SPR; reference wild-type D3H44 Fab
[6] = biological target: tissue factor (TF) antigen (UniProt P13726); test: SPR; log ratio against wild-type D3H44 Fab
[7] = biological target: tissue factor (TF) antigen (UniProt P13726); test: SPR (ProteOn XPR36): Fab captured via His tag on anti-penta-His, TF as analyte, 1:1 fit

Chain of tissue factor (TF) antigen (P13726 33-251 limits assumed): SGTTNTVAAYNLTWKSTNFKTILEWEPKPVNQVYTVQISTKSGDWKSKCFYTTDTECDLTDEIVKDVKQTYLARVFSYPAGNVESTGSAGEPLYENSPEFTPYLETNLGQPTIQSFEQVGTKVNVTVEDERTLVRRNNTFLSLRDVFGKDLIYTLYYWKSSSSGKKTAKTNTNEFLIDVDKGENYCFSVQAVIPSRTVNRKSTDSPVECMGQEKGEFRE

| Kd [1] [nM] | Change in KD with respect to wild type (-(log(KD design) - log(KD wt))) [2] | Substance | also measured |
| --- | --- | --- | --- |
| 0.14 | 0.06 | D3H44 Fab heterodimer, H1 A139G_F174V_V190A / L1 S131T_L135F_S176F_T178F (H1L1 of LCCA set 9051) | – |
| 0.17 | -0.02 | D3H44 Fab heterodimer, H1 A139W_S188L / L1 F116A_L135V (H1L1 of LCCA sets 9063 and 9062) | – |
| 0.13 | 0.08 | D3H44 Fab heterodimer, H1 L124E_H172T / L1 V133G_N137K_S174R_S176R (H1L1 of LCCA set 9120) | – |
| 0.22 | -0.15 | D3H44 Fab heterodimer, H1 L124E_L143D_K145M / L1 Q124K_V133G_S176R_T178K (H1L1 of LCCA set 9178) | – |
| 0.2 | -0.1 | D3H44 Fab heterodimer, H1 L124R_D146N_Q179K / L1 Q124E_V133G_S176D_T178E_T180E (H1L1 of LCCA set 9351) | – |
| 0.06 | 0.39 | D3H44 Fab heterodimer, H1 L143E_K145T_Q179D / L1 Q124R_Q160K_T178R (H1L1 of LCCA set 9620) | – |
| 0.32 | -0.31 | D3H44 Fab heterodimer, H1 Q179K / L1 Q124E_Q160E_T180E (H1L1 of LCCA set 9763) | – |

Continued, substance first:

| Substance | Kd [1] [nM] | Change in KD with respect to wild type (-(log(KD design) - log(KD wt))) [2] | also measured |
| --- | --- | --- | --- |
| D3H44 Fab heterodimer, H1 A139G_V190A / L1 L135W_S176L (H1L1 of LCCA set 9056) | 0.16 | -0.02 | – |
| D3H44 Fab heterodimer, H1 K145T_Q179E / L1 S131K (H1L1 of LCCA set 9082) | 0.16 | -0.01 | – |
| D3H44 Fab heterodimer, H1 L124E_L143D_K145T / L1 Q124K_V133G_S176R_T178K (H1L1 of LCCA sets 9216 and 9220) | 0.19 | -0.08 | – |
| D3H44 Fab heterodimer, H1 L124E_L143E_K145M / L1 Q124K_V133G_S176R_T178K (H1L1 of LCCA sets 9260 and 9263) | 0.24 | -0.19 | – |
| D3H44 Fab heterodimer, H1 L124R_S186K / L1 V133G_S176D_T178D_T180E (H1L1 of LCCA set 9473) | 0.18 | -0.07 | – |
| D3H44 Fab heterodimer, H1 Q179K / L1 Q124E_T178E (H1L1 of LCCA set 9783) | 0.14 | 0.05 | – |
| D3H44 Fab heterodimer, H1 Q179K / L1 Q124E_T180E (H1L1 of LCCA sets 9796 and 9789) | 0.11 | 0.16 | – |
| D3H44 Fab heterodimer, H1 S186K / L1 Q124E_T180E (H1L1 of LCCA set 9862) | 0.06 | 0.46 | – |
| D3H44 Fab heterodimer, H1 S186R / L1 Q124E_T180E (H1L1 of LCCA set 9900) | 0.07 | 0.36 | – |
| D3H44 Fab heterodimer, H L124E_L143E_K145T / L Q124K_V133G_Q160K_S176R | – | – | Kd [3]: 0.2 nM; Change in KD with respect to wild type (-(log(KD design) - log(KD wt))) [4]: -0.12; Kd [4]: 0.2 nM; Change in KD with respect to wild type (-(log(KD design) - log(KD wt))) [5]: -0.12 |
| D3H44 Fab heterodimer, H L124R_D146N_Q179K / L V133G_Q160E_S176D_T180E | – | – | Kd [3]: 0.17 nM; Change in KD with respect to wild type (-(log(KD design) - log(KD wt))) [5]: -0.04 |
| D3H44 Fab heterodimer, H L124R_D146N_Q179K / L V133G_S176D_T178E_T180E | – | – | Kd [3]: 0.16 nM; Change in KD with respect to wild type (-(log(KD design) - log(KD wt))) [5]: -0.01 |
| D3H44 Fab heterodimer, H L124R_Q179K / L V133G_Q160E_S176D_T180E | – | – | Kd [3]: 0.19 nM; Change in KD with respect to wild type (-(log(KD design) - log(KD wt))) [5]: -0.08 |
| D3H44 Fab heterodimer, H L124R_Q179K / L V133G_S176D_T178E_T180E | – | – | Kd [3]: 0.23 nM; Change in KD with respect to wild type (-(log(KD design) - log(KD wt))) [5]: -0.16 |
| D3H44 Fab heterodimer, H S186K / L Q124E_S176L_T180E (H1L1 of LCCA set 9848) | – | – | Change in KD with respect to wild type (-(log(KD design) - log(KD wt))) [6]: 0.03; Kd [7]: 0.15 nM |
| D3H44 Fab heterodimer, H S186K / L Q124E_T180E (H1L1 of LCCA sets 9855, 9860 and 9863) | – | – | Change in KD with respect to wild type (-(log(KD design) - log(KD wt))) [6]: 0.46; Kd [7]: 0.06 nM |
